# In PMC8244865, “Recruitment of phospholipase Cγ1 to the non-structural membrane protein pK15 of Kaposi Sarcoma-associated herpesvirus promotes its Src-dependent phosphorylation” (PLoS Pathogens, 2021):
# B1: pK15 CT^WT: pK15 cytoplasmic tail fused to GST at its N-terminal end, phosphorylated in vitro by Src (protein)
# chain: SQLLNEVELQEVNRDPPNVFGYASILVSGAEESREPSPQPDQSGMSILRVDGGSAFRIDTAQAATQPTDDLYEEVLFPRN
# modifications: tyrosine-phosphorylated in vitro by Src; sites not stated for this construct; left off: GST, N-terminal, kept
# Assays:
# [1] = tested on: full-length PLCγ1 R586L or R694L; experiment: GST-pulldown, full-length PLCγ1 R586L or R694L; type: binding; details: phosphorylated; full-length PLCγ1, HEK 293T; versus WT
# Procedure: (§1) Fig 3 Contribution of individual PLCγ1 SH2 domains to the interaction with phosphorylated pK15. The pK15 CT fused to GST, its Y^481F mutant, or GST alone were bound to glutathione beads, phosphorylated in vitro (+) or left unphosphorylated (-), and a GST pulldown was performed 32h after transfection into HEK-293T cells of expression vectors for S-tagged full-length PLCγ1 (FL) (A) or PLCγ1 SA (B) containing the indicated mutations. (C) pK15 CT WT, its Y^481F mutant or GST were bound to glutathione beads, phosphorylated in vitro (+) or left unphosphorylated (-), and used for a GST pulldown assay 32h after transfecting HEK 293T cells with expression vectors for S-tagged individual PLCγ1 nSH2 or cSH2 domains. […]
# (§2) HEK293T cells were washed once with cold PBS 30 hours after transfection, lysed in IP buffer (50 mM Tris pH7.6, 60 mM NaCl, 6.25 mM EDTA, 1% (v/v) glycerol, 0.04% (v/v) NP-40) on ice for 30 minutes, sonicated shortly and cleared by centrifugation for 10 minutes at 20.000g, 4°C. […] Beads were then washed 5 times in 500 μl IP buffer (or for purified proteins IP buffer with 200 mM NaCl), suspended in 10 μl of 5x Laemmli sample buffer (60 mM Tris pH6.8, 24% (v/v) glycerol, 2% (v/v) SDS, 5% (v/v) β-mercaptoethanol, 0.01% Bromphenol Blue) and analysed by western blot.
# [2] = tested on: PLCγ1 cSH2 domain (vs nSH2 domain); experiment: GST-pulldown, individual SH2 domains; type: binding; details: in vitro phosphorylated; S-tagged individual SH2 domains transfected in HEK 293
# Procedure: as §1, §2
# Src kinase = experiment: in vitro phosphorylation of pK15 CT by Src; type: biochemical; details: human GST-6xHis Src or chicken 2xStrep Src
# Source text: We expressed and purified the pK15 cytoplasmic tail (pK15 CT) fused to GST at its N-terminal end in bacteria and phosphorylated it in vitro using a commercially obtained human GST-6xHis Src, or a recombinant chicken 2xStrep Src kinase expressed in insect cells. In parallel, the GST-pK15 CT domain carrying the Y^481F mutation, or GST protein alone, were subjected to the same procedure. […] Following in vitro phosphorylation, pK15 CT^WT and pK15 CT^Y481F were used to pull down transiently expressed (Fig 2A) or endogenous (Fig 2B) PLCγ1 from HEK 293 lysates.
# The GST-fused cytoplasmic tail of pK15 (GST-pK15 CT) was in vitro phosphorylated by recombinant human GST-6xHis Src kinase (ActiveMotif, 0.4 μg/ml per kinase reaction, 10 minutes at 30°C), or a recombinant chicken 2xStrep-Src kinase (10 μg/ml per kinase reaction, 30 minutes at 25°C). GST-pK15 CT was used at 4.8 μM or 6 μM and 50 μl or 100 μl reaction volumes for AlphaLISA and 3–6 μl glutathione beads with K15 and 25 μl reaction volume for GST pulldown experiments. […]
# Supplementary file ppat.1009635.s001.tif: S1 Fig Both pK15 Y^431 and Y^481 are phosphorylated by recombinant Src kinase. […] Proteins were then analysed by WB using an antibody to pTyr. […]
molecule,measurement,setting,value
B1,binding of mutants (GST-pulldown),[1],moderately reduced binding
same,preference between SH2 domains (GST-pulldown),[2],bound preferentially to the PLCγ1 cSH2 domain compared to its nSH2 domain
same,pK15 bands detected after Src phosphorylation (pTyr Western blot),Src kinase,a dominant (bottom) and a minor (top) pK15 band
